Data from US20150315267A1.

Target: soluble, freshly prepared monomeric Aβ(1-40) (UniProt P05067)
Assay: capture ELISA, antibody immobilized, soluble monomeric Aβ(1-40) in solution

EC50: 1 nM
Substance: 3D6 (antibody)
